{"source": "patent US8513188B2", "about": "“Formulations comprising cyclic compounds” (priority 2006, dated 2013)", "key": {"[1]": {"experiment": "Dissolution of protein Rantes in organic medium (DCM/MeOH), HPLC of supernatant", "assay_type": "physicochemical", "conditions": "for presence of protein in HPLC trace of supernatant: centrifuged", "description": "Two samples of 0.2 mg each of the folded protein Rantes were taken. One sample was used as standard and dissolved in a fixed volume (300 ul) of water/acetonitrile 50% v/v and 30 ul where injected onto HPLC (FIG. 6, HPLC section A) .\nThe second sample was suspended in a mixture of DCM/MeOH 70%30% VN, (300 ul). The suspension with solid particles was centrifuged and the surnatant injected onto HPLC volume (30 ul).\nThen, 2.0 mg of Nonactine were added and the mixture was vortexed. […] Then, the mixture was centrifuged and 30 ul of the supernatant were injected onto HPLC. […] In the HPLC section C the protein has a different retention time (early elution) from the standard in section A. This phenomenon could be explained by the high percentage of organic solvents (like CH2Cl2 depicted in the figure) that carried through the protein complex with nonactine causing early elution."}, "mice": {"system": "mice", "experiment": "In vivo insulin delivery in mice by sub-lingual administration, blood glucose decrease", "conditions": "dose 1, sublingual", "description": "Dose 1: 0.5 mg of desalted human insulin with TFA counter-ions (corresponds to 0.4 mg of non treated standard insulin) are mixed with 60 mg of 18-crown-6. […] The final volume is approximately 310 μl.\nThe final volume is approximately 310 μl.\nMice were treated with 6.5 μl of mixture 1 and 2, respectively. In dose 1, each mouse was treated with approximately 10 μg of desalted human insulin with TFA counter-ions (corresponds to 8 μg of non treated standard insulin). In dose 2, each mouse was treated with approximately 52 μg of desalted human insulin with TFA counter-ions (corresponds to 41.6 μg of non treated standard insulin).\nResults: Insulin Delivery is Measured by Blood Glucose Decrease."}, "[2]": {"conditions": "dose 2: 2.6 mg desalted human insulin + 60 mg 18-crown-6 in about 310 ul mixture", "description": "Dose 2: 2.6 mg of desalted human insulin with TFA counter-ions are mixed with 60 mg of 18-crown-6. To these solids, 250 μl of a mixture is added, the mixture being composed of 200 μl of a 50% mixture of Propylen glycole and 50% glycerol, 200 mg of mono-decanoyl-glycerol and 100 μl of Cremofor EL. The final volume is approximately 310 μl."}, "Caco-2 cells [3]": {"system": "Caco-2 cells", "conditions": "insulin incorporated into liposome according to Sigma preparation, no 18-crown-6", "description": "Liposomes were purchased from Sigma-Aldrich (pre-liposome formulation 8; product No. L3531) and used according to the following procedure. Alternatively, same ingredients were purchased by other suppliers (Avanti), and liposomes were prepared according the procedure indicated by Sigma. Insulin passage was measured by HPLC injection of samples in the receiving chamber.\nThe organic mixture containing insulin was mixed with the lipid mixture of Sigma, then solvent was evaporated or lyophilized. Water addition generated liposomes that were tested for delivery in Caco-2 cells."}, "Caco-2 cells [4]": {"system": "Caco-2 cells", "conditions": "insulin at same concentration in physiological buffer, without formulation agent and organic vehicle", "quoted_text": "Should insulin pass through the Caco-2 cell lines, it is found in the receiving chamber.\nInsulin Concentration: 3 mg in 125 μl of olive oil/Peg, 92%/8%, v/v\nVehicle: olive oil/Peg (esaethylenglycol)\nPositive control: Ibuprofen: 1 mg in 125 μl physiological buffer.\nAfter vortex, 50 μl of the final mixture are added to the caco-2 cell well in double.\nActive Sample Preparation (Insulin with Vehicle & Formulation Agent)\nAfter MeOH evaporation, 115 μl of olive oil and 10 μl Peg are added. Vortex for 2-3 minutes. After vortex, 50 μl of the final mixture are added to the Caco-2 cell well in double.\nControl (Insulin with Formulation Agent in Physiological Buffer; No Organic or Non-Aqueous Vehicle Present)\nVortex the mixture for 2-3 minutes. […] Then methanol is evaporated and 125 μl of physiological buffer are added; 50 μl of the above solution are added to the Caco-2 cell well in double."}}}
{"compound": "C[C@@H]1C[C@H]2CC[C@H](O2)[C@H](C)C(=O)O[C@@H](C)C[C@@H]2CC[C@@H](O2)[C@@H](C)C(=O)O[C@H](C)C[C@H]2CC[C@@H](O2)[C@H](C)C(=O)O[C@@H](C)C[C@@H]2CC[C@@H](O2)[C@@H](C)C(=O)O1", "note": "[Nonactine]", "values": [{"measurement": "presence of protein in HPLC trace of supernatant", "setting": "[1]; 0.2 mg Rantes in 300 ul DCM/MeOH 70%/30% + 2.0 mg Nonactine, versus water/acetonitrile standard", "result": "presence of the peptide in similar proportion as per the area of the standard"}, {"measurement": "appearance of the mixture after addition of Nonactine", "setting": "[1]; 0.2 mg Rantes in 300 ul DCM/MeOH 70%/30% + 2.0 mg Nonactine, vortexed", "result": "clear solution"}]}
{"compound": "Insulin: human insulin, previously desalted; with TFA counter-ions in Example 8", "values": [{"measurement": "effect on blood glucose (insulin delivery)", "setting": "mice; about 10 ug desalted human insulin with 18-crown-6, compared with IP injection", "result": "close to the effects of IP injection"}, {"measurement": "actual delivery", "setting": "mice; dose about 7 times the injected control dose", "result": "around 10%"}, {"measurement": "solubility of insulin in the dose mixture", "setting": "[2]", "result": "precipitation of insulin occurred"}, {"measurement": "insulin passage through Caco-2 cells", "setting": "Caco-2 cells [3]", "result": "did not result measurable insulin passage"}, {"measurement": "insulin passage across Caco-2 cells", "setting": "Caco-2 cells [4]", "result": "does not cross caco-2 cells"}]}
{"compound": "Rantes: folded protein Rantes, a chemokine", "values": [{"measurement": "presence of protein in HPLC trace of supernatant", "setting": "[1]; 0.2 mg Rantes suspended in 300 ul DCM/MeOH 70%/30%, no Nonactine", "result": "no presence of the protein in the chromatogram"}]}
